# According to US20060067951A1 (GOVERNING COUNCIL OF THE UNIVERSITY OF TORONTO, published 2006):
# T1: S. mutans ComD histidine kinase receptor (Streptococcus mutans)
# T1 chain: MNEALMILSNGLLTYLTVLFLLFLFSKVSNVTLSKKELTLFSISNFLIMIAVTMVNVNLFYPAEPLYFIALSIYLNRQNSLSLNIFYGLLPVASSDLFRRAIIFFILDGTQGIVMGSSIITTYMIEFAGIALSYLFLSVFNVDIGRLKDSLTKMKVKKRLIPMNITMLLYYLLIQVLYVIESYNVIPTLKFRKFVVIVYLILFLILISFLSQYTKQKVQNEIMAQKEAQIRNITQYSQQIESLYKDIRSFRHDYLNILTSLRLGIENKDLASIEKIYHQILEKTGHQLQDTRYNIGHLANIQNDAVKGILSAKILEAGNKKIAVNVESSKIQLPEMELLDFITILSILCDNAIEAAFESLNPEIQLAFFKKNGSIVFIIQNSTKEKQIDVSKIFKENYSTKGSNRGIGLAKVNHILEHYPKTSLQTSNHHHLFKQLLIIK
# Biological target: T1, S. mutans ComD histidine kinase receptor
# Assay: cell-based or functional assay
Binder,"Transformation efficiency (vs no CSP), 5 µg/ml peptide, S. mutans wild-type UA159","Transformation efficiency (vs 5 µg CSP), 5 µg/ml peptide, S. mutans wild-type UA159 [fold decrease]"
SGSLSTFFRLFNRSFTQALGK [mature wild-type S. mutans competence stimulating peptide (CSP)],1550 fold increase,–
SGSSTFFRLFNRSFTQALGK [CSP peptide analog D1],275 fold increase,6
SGSLTFFRLFNRSFTQALGK [CSP peptide analog E1],791 fold increase,2
SGSLSTFFRLFNRSFTQALK [CSP peptide analog F1],541 fold increase,3
SGSLSTFFRLFNRSFTQAGK [CSP peptide analog G1],848 fold increase,2
SGSLSTFFRLFNRSFTQLGK [CSP peptide analog H1],18 fold decrease,28000
SGSLSTFFRLFNRSFTALGK [CSP peptide analog A2],125 fold increase,7
SGSLSTFFVLFNRSFTQALGK [CSP peptide analog B2],4 fold increase,414
SGSLSTFFALFNRSFTQALGK [CSP peptide analog C2],32 fold increase,48
SGSLSTFFRLFNVSFTQALGK [CSP peptide analog D2],99 fold increase,16
SGSLSTFFRLFNASFTQALGK [CSP peptide analog E2],252 fold increase,6
SGSLSTFFRLFNRSFTQALGV [CSP peptide analog F2],543 fold increase,3
SGSLSTFFRLFNRSFTQALGA [CSP peptide analog G2],56 fold increase,28
SGTLSTFFRLFNRSFTQA [CSP peptide analog B3],195 fold increase,8
